Data on 16 sequences can be found in the DeepSol protein solubility set.

The nature of this series: soluble on expression in E. coli; label from the status in PepcDB or PDB records.
On to “MTEALELGDCLLSGAVGLVVKRRSGIAEDVARLVVKELVESGVEVLVDETVDYPSLSGFPRFSISRDPPGRVVVVGGDGTLLRTFLRLGERESPLFMTIKAGKKGFLLDVERYEAVERLRDFLEGRFREVVYPRYRVYLEGEARACMFNDTAVTANNAKMARVHVFVDGDLAMNIDGDGVVVSTTAGSTAYSLSGGGPIIDPRLDVIVLTPLNPVQLFLRSIVVPSGSRVTVEASVYSNPLVVNIDGQYVYELEPGGIVDIERCGSGVRIARFRWWEDYYERLYTRLLAYWAAALEHHHHHH”, for which the “soluble on expression in E. coli” value is reported as “not soluble”.
The entry for “NIDLDVQNMAQNALKFGYDEIVKRDKDANLSTLNGAMVVVNHQSGDVLALVGGVDYEKSNYNRATQSMRQPGSSFKPFVYQVAINLGYSPMSEIADISRIFEGGAGNNEDWKPKNEGGKFLGLITLKEALTRSRNLATINLALDMGLDVLYSKLMEFGFKDIPPNLSIVLGSFGISPLEYSKFYTMFGNYGTIKDPQIIRQVQDKTGKTIMEFNSNERKVSDEAQSFLVLDMMRNVVEKGTGRNARVKDIEIAGKTGTTNKSVDAWFCGLTPEIEAIIWYGNDNNKPMRYTEGGARTAAPVFREFLTQYIEKFPDTTR” is “not soluble”; for “MAHHHHHHMGKYAVVVIGPAGSGKSTLCTVVAEHYATKGRSTHICNFDPAAEDLPYDPSIDIRELISLEDAMEGKGLGPNGGLVFCMEYLLGQGEVWLCDQLGDHEEDFIIVDMPGQLEVLSHIPAVPGFVRLLERSGFHVVVLFLLDALAATADAGKFVSGCTFALSCMVCFECPFMNVLTKCDLLPPAIREEALDHFCTCDFDYLNTKPLPERWREMVRTLAAVIFDFNLVTFRPMDNTDVAYVGNLCYLIDEALQVVDDAEVNDRDLPDASEAGEAVEDTMDWKHY” it is “not soluble”.
The result for “MGSDKIHHHHHHMNIETLMIKNPPILSKEDRLGSAFKKINEGGIGRIIVANEKIEGLLTTRDLLSTVESYCKDSCSQGDLYHISTTPIIDYMTPNPVTVYNTSDEFTAINIMVTRNFGSLPVVDINDKPVGIVTEREFLLLYKDLDEIFPVKVFMSTKVQTIYKEVRLDQAVKLMLRRGFRRLPVIDDDNKVVGIVTVVNAIKQLAKAVDKLDPDYFYGKVVKDVMVTNLVTIDELASVNRAAAEMIVKRIGSLLILNKDNTIRGIITERDLLIALHHILVMEKFKEKL” reads “not soluble”; that for “MGSDKIHHHHHHANVEVQKENFVFSIKGTDTLSLDKYELPSISPASKKPVMIFAFGGGFKGGDKADKGYIPYFEFLARNGFVVVSTDYRTTLKNLDPSKVSSPMDFIAALQHAIDTAVEDFYDATGFVINQSSDWNIDVEQIVASGSSAGAITVLQAEYDLCNGHELAKRLPAGFNYAGVISYAGAVSGVLPPHWEKMPCPIMLFHGDADKTVPFEQAAMENLGGLWGSSAVAKSLENLQASYYFYKVENAGHEISGLPMSRNQYDIMSFLSRQVLGDENLAITTDERVPGDTIVRKDFTVQDYILDNLR”, “not soluble”; that for “MNEYKKEIKISVRNLVEFVLRTGDIDSSFTGSSRAVEGTRLHKKIQKTQGKEYSPEVFLKTTVEFDDFFLTVEGRADGVINEDGCFIIDEIKTTTAPLELIDEFYNPLHWAQAKCYAYIHALNENLEKIKIRLTYCHLETEEIKYLVSEFDFAELSRFFEELVEKYYVWAKLACDWQVKRDCSIKVLEFPFEKYRKGQRKLAVAVYKTVTEGKKLYVKAPTGIGKTISTLFPAVKAIGEGHASKIFYLTAKTVTGGVAKEAFAKMRQKGLLFKTVTLTAKEKICFMEKAVCKPEKCEYAKGHFDRVNEAIMDILTNEDEIKREVIEEYAKAHRVCPFELALDLTIWADAVICDYNYVFDPRVYLKRFFSDAGGDYIFLVDEAHNLVDRAREMFSAQLSKKSFLELKKAMKEESPKISKTLQKLNTFMLGMKKLCGDNDYFVSKEEQSEIYLLLRRLIGECEEYLTDRAKNGIENEDLLQLYFDALMYVRIAEFYDDRYVTFVEKSDNDVRIKLFCIDPSHLLSEALKRGKAAVFFSATLLPLSYFKEVLGGGPDDYTMCLDSPFEVNNRCLMIADRISTRYQDRGKSCDEVVQCIKSIVCAKKGNYIAFFPSYQYMNMIYELFEKECGDIKLYVQSSSMTEKEREDFLERFKADPQETVLGFCVLGGIFSEGIDLRDDRLIGAIIVGVGLPQICIERDIIRDYYQNKNRLGFEYSYMYPGMNKVMQAAGRVIRSENDKGVILLIDDRFTNPSYLALFPNEWFPYIRVTGNNISEHVKKFWSRHGA”, “soluble”.
Turning to “MGSDKIHHHHHHMSGLCAKCVDGCTGGCETWLASFRGREVLYPGPFGDITAGAVKDYPVDYSHLNILGYARGAEGLPEGVEPGPDTAIFTNVDTTTEYGWDIKVKMKVPIFTGALGSTEIARKNWDHIAVGAAISGITVVCGENVAGVDPDLELDSNGKVKKSPELDRRIEIYKRYHDGEYGEILIQMNVEDTRLGVAEYVINKHGIETIELKWGQGAKSIGGEIKVRSLERALELKRRGYIVLPDPELPEVQRAFKEGEIKEFERHSRLGFVSKESFLKEVERLRKLGFKRITLKTGAYSAVELAMALRYGAEAKVDLITVDGAPGGTGMSPWPMMNEWGIPTFYLEALTYQFAEKLSRRGIRVPDIAIAGGFSTEDGVLKAIAMGSPYVKAVCMGRALMIPAMVGKNIGEWLKSGNLPKTVSKYGTTVEEIFVTYEELRSRFGEEEVKKLPLGAIGVYTFVQKFKTGLQQLMAGARKFRLSALSRKDLIALTKDAAEISGIPYVMESYRDEAERILEE”, the “soluble on expression in E. coli” value was “not soluble”.
The entry for “MKLTVKRSVFLQELQTVQRAISSKTTIPILTGVKIVLSEDGLSLTGSNADISIESFLSKDDEKAQMTIERTGSIVLQSRFFGEIIRKLPEDMFTMEVLDNNQVAITSGKADFTVNGLDADNYPHLPVIDTQNQMKLPVHLLTKIISETGFAVSMHESRPILTGVHFILENQKLLAVATDSHRLSQRVIPTEQAVEDFNIVIPGKSLTELSRSLTNEEEMVEISIMENQVLFKTETMYFYSRLLEGNYPDTNRLIPTSHNTQIEFYVPELLSAIERASLLSHEGRNNIVRLSISPDSVVLYGNSPEIGKVEEALNYENVSGEALDISFNPDYMKDALRAFGDMNITVKFLSPIRPFTLEPTETELDFIQLITPVRTN” is “not soluble”; for “MFPQADEPERDTLPGQEEDPLPTGQEQPSITPIAGTEAQYIDIAEWYDSDSILYITDEGENSLVYIYNLLTGEKKSLFSSDDAVIKVTANSTHSQFAIQTVTQAGDAPVSIIDSQGELLMKLEDFGEDFSIFWSPYEEDKLIAVAYLPDWEQDLYLIDTSDKQVEMLDLDQSFVQWLDERTIVYLDWNGDSEGYYAPLYTFDLETEEVVLLHEEAIATLGFGDHVTLIIERPEQGAEVTTYQFWNGSEQLAEWSVPILRTYSEQWWIPFYDFDLNKRLFYAYKPNRTGDYFEYDGGFSFIAFDVDHGEETVLFESDEHVPFRLSPTGQRALFGPRLETVMDLPTGESNSLIE” it is “not soluble”.
Turning to “SNAMSKRVLMVVTNHTTITDDHKTGLWLEEFAVPYLVFQEKGYDVKVASIQGGEVPLDPRSINEKDPSWAEAEAALKHTARLSKDDAHGFDAIFLPGGHGTMFDFPDNETLQYVLQQFAEDGRIIAAVCHGPSGLVNATYKDGTPIVKGKTVTSFTDEEEREVGLDVHMPFLLESTLRLRGANFVRGGKWTDFSVRDGNLITGQNPQSSRSTAEKVVAALEERE”, the “soluble on expression in E. coli” value is listed as “soluble”.
As for “MMVKSFTPPSSQSSVQDSGNSKLSVIEVVPENGIGALVSSSPTILRTTQAEPEILRYDPVEILAHYENKLLQVLRRTLAVLQPTLSYVFGLWLDNKRGVKVKNDRSRAIQLRELLTKLGPAYIKIGQALSTRPDLVPPVYLEELTRLQDQLPAFPNEIAYQFIEEELGAKPEEIYAEVSPEPIAAASLGQVYKGKLKTGEEVAIKVQRPDLREIITIDLYILRRLAGWVQRKVKRVRSDLVGILDELGDRIFEEMDYIHEGENAERFFELYGHIQDIYVPKIYWEYTNRRVLTMEWIKGIKLTQTSEIKELGIDARYLIEVGVQCSLRQLLEHGFFHADPHPGNLLATFDGKLAYLDFGMMSEIRPPQRYGLIEAIVHVVNRDFDSLAQDYVKLEFLSPETDLTPIIPAFGKVFANAQGASVAELNIKSITDDLSALMYEYPFRVPPYYALIIRSLVTLEGIAIYIDPNFKVLSEAYPYVSKRLLTDPADELRTSLRDLLFKMVNSGGIV”, the “soluble on expression in E. coli” value is recorded as “not soluble”.
The entry for “MTVNAKTSPSAGNTWRDLPAAQQPEYPDTEALRAVIADLESYPPLVFAGECDQLRARMAAVAKGEAFLLQGGDCAEAFDAVSADHIRNKLKTLLQMGAVLTYAASVPVVKVGRIAGQYSKPRSKPTETRDGVTLPTYRGDSVNGFDFTEAARIPDPERLKRMYHASASTLNLVRAFTTGGYADLRQVHAWNQDFVKSSPSGQRYEQLAREIDNALNFMRACGTDPAEFQTVEFFSSHEALLLDYESALTRVDSRTGQLYDVSGHMVWIGERTRQLDHAHIEFASRIRNPIGIKLGPSTTAEEALQYIERLDPEREPGRLTFIVRMGADKIRDKLPELVEKVTASGATVAWITDPMHGNTYEAASGHKTRRFDDVLDEVKGFFEVHKSLGTHPGGIHVELTGDDVTECVGGGDEIFVDDLHQRYETACDPRLNRSQSLDLAFLVAEMYRDQ” is “not soluble”; for “MDSYGYIETMGLLTAIEAADAALKAANVVFTNCYIVKGGIVTVELAGDVAAVTAAVEAGSESARKLGNFISKNVIARVDDETKKILKGDTFISDNNKDGKTEKEISEEELLQNEMEKEEESIEELDALEEIIKADIPTAEGDIPLYDEVIKSPEFSELENDEEAKIITETVKRNDSDGEPYETQEKITVIEEEINTKQTNNNTDYENMKVTDLRGIVKELNSHLTWNQVKAMNKKKLVETLKKNKREK” it is “not soluble”.
The result for “MFHLKTFSDMVESIQITSFHNAELLNFMIDEVKDARTLSKNEIIPTLDELDKVLATFKKGIAMNKTSEYSEKITALDAVRSKAFRNFIGCIQGETHRPEEDHREAARRLFILLKPYNNLNRKSYRNKTELMYKLVEVLRSDKHASDVQTVNVSAWIDKMDNANKAFDQLFDLRDNTEGERLIINNREMRHRIRLHYNRLLEIIEALLVLHADRPLEGFVGRHNERVAKMKALFALRASIGTKSTREKRDVLRSLAIGLGWSLPAGQEDFEFFAGTRILHPTEHRWYCLGKKDNIITLVLYKGKKKQSSSSSSNSSVDLPDLPAPPPSQPDNGSSGGGGEQGGGGSGGL” reads “not soluble”; that for “MLTFNDNKAGMNGLDKEKITKVIEENTSASYSSFSKKQQSRIEEKVLEIKNRLQTATREERQKSEILMENLEMKLESSRDLSRDCVCIDMDAYFAAVEMRDNPALRTVPMAVGSSAMLSTSNYLARRFGVRAGMPGFISNKLCPSLTIVPGNYPKYTKVSRQFSQIFMEYDSDVGMMSLDEAFIDLTDYVASNTEKKTFKRHRFGGDCPCWLPRFDENENTLEDLKIEESICPKCEKSRKIYYDHVEFGTGREEAVREIRFRVEQLTGLTCSAGIASNFMLAKICSDLNKPNGQYVLENDKNAIMEFLKDLPIRKVGGIGRVCEAQLKAMDIQTVGDMNLKKNLYPLCFTPLSQESFLRTALGLPGRPSESDPRRKSISVERTFSPTSDFNILLEEHQEICRMLEEDVRKSGIVGGKTVTLKLKLSSFDVLTRSLTPSDVVKSLEDIQKFSLELLEKEKGKEIRLLGVRLSQLIFEEDEKKRSKTVCQKILKTITDKYKAMFSSIFLRHFISDHRVLE”, “not soluble”; that for “MSLAQWNKQDSIRLQELLNGDGELKINTEAVKSIHFDFQSDKDNIKGTPIMSEDKPWMKFLKDLPKNFGDTTKWVRPNFVRLTPYTPYTTWHEDPVNDPIFLKRKDSLTISWKLNIKLIPGLRNGYVILPAGMDQTVTPSNNPLIGGLDADKFLYESLTKRGRAIRRNRNRAKGWKIYQSYVPTRQDSILFPRISKVSEQDSLPKQDTLLIKKDSAIINQNSLLLKDKINGKDQTEGHHHHHH”, “soluble”.
